Data on 1 substance can be found in PMC6588460.

This assay deals with AKAP95 (human (endogenous in HEK293T)) (UniProt O43823). Put plainly: proximity ligation.
Chain of UniProt O43823 (O43823 whole entry): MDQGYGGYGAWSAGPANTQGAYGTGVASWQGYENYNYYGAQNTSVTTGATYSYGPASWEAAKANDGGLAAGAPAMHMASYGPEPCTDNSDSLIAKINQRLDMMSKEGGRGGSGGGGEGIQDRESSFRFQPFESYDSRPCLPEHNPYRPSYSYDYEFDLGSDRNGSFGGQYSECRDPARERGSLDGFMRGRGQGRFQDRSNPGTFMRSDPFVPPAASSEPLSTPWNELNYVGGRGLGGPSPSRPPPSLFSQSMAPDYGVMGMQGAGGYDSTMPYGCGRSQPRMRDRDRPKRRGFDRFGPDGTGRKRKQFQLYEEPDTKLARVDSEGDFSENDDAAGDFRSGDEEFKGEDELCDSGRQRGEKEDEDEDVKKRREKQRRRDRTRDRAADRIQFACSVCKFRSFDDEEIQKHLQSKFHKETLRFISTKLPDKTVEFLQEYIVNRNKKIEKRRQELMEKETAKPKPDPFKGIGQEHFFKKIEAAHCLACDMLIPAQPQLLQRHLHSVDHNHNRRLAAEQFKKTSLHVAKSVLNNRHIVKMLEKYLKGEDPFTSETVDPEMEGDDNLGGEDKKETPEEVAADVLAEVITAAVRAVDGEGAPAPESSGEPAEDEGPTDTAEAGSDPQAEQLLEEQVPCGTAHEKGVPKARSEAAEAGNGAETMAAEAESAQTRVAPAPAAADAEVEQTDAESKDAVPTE

The substance PDE4D5 (enzyme) showed a PLA dots per nuclei (dots per nuclei) of 3.8.
